From patent publication US20190263905A1 (DINONA, published 2019)
Blank lines part the entries; values can stand above or below the binder they belong to.

Tests used:
[1] = target: T1, CD66c (CEACAM6) on CD66c-positive A549 non-small-cell lung cancer cells (UniProt P40199 35-320, limits assumed); assay: flow cytometry on CD66c-positive A549 cells, mean fluorescence
T1 construct: whole, on cells; also called CD66c antigen; NCA-90
T1 sequence (looked up): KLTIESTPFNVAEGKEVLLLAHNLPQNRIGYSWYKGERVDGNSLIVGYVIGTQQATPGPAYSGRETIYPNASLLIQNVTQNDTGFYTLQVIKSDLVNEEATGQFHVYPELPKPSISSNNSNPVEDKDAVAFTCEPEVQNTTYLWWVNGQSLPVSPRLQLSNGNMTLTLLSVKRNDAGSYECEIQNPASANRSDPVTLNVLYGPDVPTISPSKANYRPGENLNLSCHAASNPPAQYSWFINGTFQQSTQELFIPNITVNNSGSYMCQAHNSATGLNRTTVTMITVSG
Method: (§1) Each expressed 96 recombinant humanized antibody was poured and reacted in a test tube containing the same amount ([…]) of CD66c-positive A549 non-small-cell lung cancer cell line at 4° C. for 30 minutes, washed with PBS, and treated with FITC-conjugated goat anti-Human IgG (DiNona Inc, Korea) was added and incubated at 4° C. for 15 minutes. After washing with PBS, the cells were analyzed with a flow cytometer (Stratedigm, S1000EXi) and the results are shown below.
(§2) Among the 96 recombinant humanized antibody candidates, eight were firstly selected based on the degree of expression, the presence of aggregation, and the degree of cell binding (Table 9 and Table 10, FIGS. 3A to 3E).

[2] = target: T1, CD66c (CEACAM6) on CD66c-positive A549 …; assay: flow cytometry on CD66c-positive A549 cells, FITC anti-human IgG
Method: as §1, §2

[3] = target: T1, CD66c (CEACAM6) on CD66c-positive A549 …; assay: flow cytometry on A549 cells, relative to chimeric antibody
Method: as §1, §2

[4] = target: T2, Antigen CD66c (CEACAM6; Sino Biological, Inc.) (UniProt P40199 35-320); assay: ELISA, coated CEACAM6 100 ng/well, antibody 0.17 ng/ml
T2 construct: Bought antigen coated on the ELISA plate; construct not described; also called CD66c antigen; CECACAM6
T2 sequence (looked up): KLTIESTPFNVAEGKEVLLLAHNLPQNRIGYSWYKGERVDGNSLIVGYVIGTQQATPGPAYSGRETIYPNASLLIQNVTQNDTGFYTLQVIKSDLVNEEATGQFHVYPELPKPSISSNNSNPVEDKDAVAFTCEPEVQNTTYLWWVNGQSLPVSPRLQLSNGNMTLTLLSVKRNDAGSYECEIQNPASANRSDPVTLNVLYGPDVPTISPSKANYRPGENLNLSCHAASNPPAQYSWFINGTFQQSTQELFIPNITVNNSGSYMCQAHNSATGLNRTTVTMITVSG
Method: (§3) Antigen CD66c (CEACAM6; Sino Biological, Inc.) and CEACAM1 antigen (Sino Biological, Inc.) were coated on a 96-well plate at 100 ng per well and then blocked. The primary antibody was diluted serially three fold from 10 ug/ml at initial concentration and was bound at 37° C. for 1 hour, and goat anti-Human Ig-HRP conjugate (Jackson ImmunoResearch) as a secondary antibody was diluted 1:10,000 and incubated at 37° C. for 30 minutes. The washing was carried out at three times between each step, and the TMB reaction was performed, stopped with 1N H₂SO₄ solution at the same amount of TMB solution (100 ul) and then OD value was measured at 450 nm.
(§4) As a result of the experiment, the binding affinities to CD66c antigen of the five kinds of recombinant humanized antibodies selected from among 96 kinds of recombinant humanized antibodies are shown in FIG. 4a, Table 12, FIG. 4b and Table 13. FIG. 4a and Table 12 show the binding capacity of the antibodies to CECACAM6 CD66c) antigen, and FIG. 4b and Table 13 are the results for the CEACAM1 (CD66a) antigen.

[5] = target: T2, Antigen CD66c (CEACAM6; Sino …); assay: ELISA, coated CEACAM6 100 ng/well, antibody 4.57 ng/ml
Method: as §3, §4

[6] = target: T2, Antigen CD66c (CEACAM6; Sino …); assay: ELISA, coated CEACAM6 100 ng/well, antibody 1111.11 ng/ml
Method: as §3, §4

[7] = target: T2, Antigen CD66c (CEACAM6; Sino …); assay: ELISA, coated CEACAM6 100 ng/well, antibody 1.52 ng/ml
Method: as §3, §4

[8] = target: T2, Antigen CD66c (CEACAM6; Sino …); assay: ELISA, coated CEACAM6 100 ng/well, antibody 370.37 ng/ml
Method: as §3, §4

[9] = target: T2, Antigen CD66c (CEACAM6; Sino …); assay: ELISA, coated CEACAM6 100 ng/well, antibody 0.51 ng/ml
Method: as §3, §4

[10] = target: T2, Antigen CD66c (CEACAM6; Sino …); assay: ELISA, coated CEACAM6 100 ng/well, antibody 41.15 ng/ml
Method: as §3, §4

[11] = target: T2, Antigen CD66c (CEACAM6; Sino …); assay: ELISA, coated CEACAM6 100 ng/well, antibody 123.46 ng/ml
Method: as §3, §4

[12] = target: T2, Antigen CD66c (CEACAM6; Sino …); assay: ELISA, coated CEACAM6 100 ng/well, antibody 10000.00 ng/ml
Method: as §3, §4

[13] = target: T2, Antigen CD66c (CEACAM6; Sino …); assay: ELISA, coated CEACAM6 100 ng/well, antibody 13.72 ng/ml
Method: as §3, §4

[14] = target: T2, Antigen CD66c (CEACAM6; Sino …); assay: ELISA, coated CEACAM6 100 ng/well, antibody 3333.33 ng/ml
Method: as §3, §4

B1: recombinant humanized anti-CD66c antibody Protein ID 3004 (Vk7 + VH5) (antibody, human IgG1, V domains shown)
VH: QVQLVQSGAEVKKPGASVKISCKASGYSFTDYTMNWVRQAHGQNLEWIGLINPFHGGTVSNQRFKVKATLTVDVSTNTAYMELSRLRSDDTAVYYCVRGDPVRHYYALAYWGQGTLVTVSS
VL: DIQMTQSPSTLSASVGDRVTITCGASENVYGTLNWYQRKPGKAPKLLIYGATNLADGVPSRFSGSGSGTEYTLTISSLQPDDFATYYCQNVLSAPYTFGGGTKLEIK
notes: also called #41
Mean [1]: 541
% gated [2]: 71%
% (% gated × mean) [3]: 85%

B4: recombinant humanized anti-CD66c antibody Protein ID 3010 (Vk7 + VH7) (antibody, human IgG1, V domains shown)
VH: QVQLVQSGAEVKKPGASMKISCKASGYSFTDYTMNWVRQAPGQGLEWIGLINPFHGGTVSNQRFKVKATLTVDVSTNTAYMELSRLRSDDTAVYYCVRGDPVRHYYALAYWGQGTLVTVSS
VL: DIQMTQSPSTLSASVGDRVTITCGASENVYGTLNWYQRKPGKAPKLLIYGATNLADGVPSRFSGSGSGTEYTLTISSLQPDDFATYYCQNVLSAPYTFGGGTKLEIK
notes: also called #45
Mean [1]: 554
% gated [2]: 70%
% (% gated × mean) [3]: 85.8%

Continued, values first:

OD 450 nm [4]: 0.68 OD
Mean [1]: 561
OD 450 nm [5]: 1.32 OD
% gated [2]: 70%
OD 450 nm [6]: 3.34 OD
OD 450 nm [7]: 0.95 OD
OD 450 nm [8]: 3.23 OD
OD 450 nm [9]: 0.8 OD
OD 450 nm [10]: 2.45 OD
OD 450 nm [11]: 3.04 OD
% (% gated × mean) [3]: 86.9%
OD 450 nm [12]: 3.13 OD
OD 450 nm [13]: 1.77 OD
OD 450 nm [14]: 3.26 OD
B2: recombinant humanized anti-CD66c antibody Protein ID 3019 (Vk7 + VH10) (antibody, human IgG1, V domains shown)
VH: QVQLVQSGAEVKKPGASVKVSCKASGYSFTDYTMNWVKQAPGQNLEWIGLINPFHGGTVSNQRFKVKATMTVDVSTNTAYMELSRLRSDDTAVYYCVRGDPVRHYYALAYWGQGTLVTVSS
VL: DIQMTQSPSTLSASVGDRVTITCGASENVYGTLNWYQRKPGKAPKLLIYGATNLADGVPSRFSGSGSGTEYTLTISSLQPDDFATYYCQNVLSAPYTFGGGTKLEIK
notes: also called hu 3019; #51

Mean [1]: 523
% gated [2]: 71%
% (% gated × mean) [3]: 82.2%
B3: recombinant humanized anti-CD66c antibody Protein ID 3046 (Vk8 + VH7) (antibody, human IgG1, V domains shown)
VH: QVQLVQSGAEVKKPGASMKISCKASGYSFTDYTMNWVRQAPGQGLEWIGLINPFHGGTVSNQRFKVKATLTVDVSTNTAYMELSRLRSDDTAVYYCVRGDPVRHYYALAYWGQGTLVTVSS
VL: DIQMTQSPSTLSASVGDRVTITCRASENVYGTLNWYQRKPGKAPKLLIYGATNLADGMPSRFSGSGSGTEYTLTISSLQPDDFATYYCQNVLSAPYTFGGGTKLEIK
notes: also called #74
